Measurements reported in the Human Domainome abundance scans (Beltran et al. 2025).

B1: Tripartite motif-containing protein 49C, residues 87 to 133; numbered along this chain, P0CI26 (parent)
chain: SSEEQMCGTHRETKKIFCEVDRSLLCLLCSSSQEHRYHRHRPIEWAA
B2: Tyrosine-protein kinase BTK, residues 215 to 273; numbered along this chain, Q06187 (parent)
chain: ELKKVVALYDYMPMNANDLQLRKGDEYFILEESNLPWWRARDKNGQEGYIPSNYVTEAE

Variants of: B1
Assay: abundance fitness (aPCA) (normalised: wild type 0, dead -1); higher = more abundant; growth selection in yeast, the domain comes from the species named
Conditions: Homo sapiens

Abundance fitness: each site, then its substitutions
L28: K 0.003, M 0.024, N 0.075, P -0.095, Q 0.274, R -0.068, S 0.12, T 0.204, V 0.186, W -0.368, Y 0.056
C29: A -0.675, E -0.63, F -1.08, G -0.716, H -0.418, I -1.2, K -0.776, L -0.977, M -0.935, N -0.816, P -0.715, S -1.06, T -0.861, V -0.959, W -0.815
S30: A 0.203, D -0.288, E -0.165, F -0.776, G -0.319, H -0.528, I -0.435, K -0.72, M -0.176, N -0.555, P -0.622, Q -0.665, R -0.697, T -0.19, V -0.257, W -0.615, Y -0.407
S31: A -0.048, C -0.194, D -0.251, E -0.123, F -0.313, I -0.065, K -0.286, L -0.493, M -0.408, P -0.544, Q -0.152, R -0.017, T -0.328, V -0.122, W 0.015, Y -0.244
S32: A -0.222, C -0.414, D -0.041, E -0.364, F -0.465, H -0.483, I -0.947, L -0.313, M -0.141, N -0.134, P -0.442, Q -0.116, R 0.017, T -0.278, V -0.301, W -0.464, Y -0.224
Q33: D -0.264, E 0.081, F -0.237, G -0.151, H -0.197, I 0.694, L -0.012, M -0.257, P 0.391, T -0.116, V 0.01, W -0.352, Y 0.159
E34: C -0.514, D 0.041, F -0.748, G -0.492, H -0.046, I -0.818, K -0.246, L -0.659, M -0.496, N -0.417, P -0.834, Q -0.41, R -0.557, S -0.281, T -0.349, V -0.492, W -0.928
H35: C -0.636, D -0.821, E -0.997, F -0.75, G -0.769, I -0.882, K -0.929, L -1.08, M -0.916, P -0.676, Q -1.09, R -0.799, T -0.929, V -0.892, W -0.846, Y -1.06
R36: A 0.037, D 0.001, E -0.308, F -0.607, G -0.454, H 0.064, I -0.217, K -0.15, L -0.152, M -0.301, N -0.028, P -0.535, Q -0.199, S -0.197, T 0.001, V -0.213, W -0.66, Y -0.701
Y37: A 0.181, C -0.032, D 0.176, E 0.178, F -0.059, H 0.181, I -0.386, K 0.058, L 0.127, N 0.226, P -0.273, Q 0.155, R -0.109, S 0.171, T 0.051, V -0.243, W -0.218
H38: A -0.573, C -0.836, D -0.521, E -0.33, F -0.271, G -0.84, I -0.892, K -0.607, M -0.717, N -0.781, Q -0.562, R -0.591, S -0.691, T -0.599, V -0.851, W -0.708, Y -0.711
R39: A -0.103, C -0.375, D 0.257, E 0.203, F -0.356, G -0.253, H -0.131, I 0.162, L -0.172, M -0.155, N 0.363, P -0.246, Q 0.045, S 0.083, T 0.02, V -0.092, W -0.314, Y -0.328
H40: C -0.623, D -0.083, F -0.709, G -0.468, I -0.893, K -0.908, L -0.551, M -0.633, N -1.27, P -0.767, Q -0.129, R -0.563, S -0.298, T -0.849, V -0.439, W -0.608, Y -0.888
R41: A -0.084, C -0.609, D 0.496, E -0.197, F -0.29, G -0.34, K -0.402, M -0.39, P -0.364, Q 0.09, S 0.011, T -0.292, V -0.607, W -0.413, Y -0.659
P42: A 0.022, C -0.049, F -0.289, G -0.007, H -0.264, I -0.377, K 0.11, L -0.324, M -0.366, N -0.103, Q -0.081, R -0.221, S -0.122, T -0.065, V -0.393, W -0.671, Y -0.26
I43: A 0.405, E 0.24, F 0.594, G -0.215, K 0.352, M -0.37, P -0.524, R -0.385, S -0.011, T -0.54, V 0.023, W -0.395, Y 0.335
E44: A -0.411, C -0.525, F -0.82, G -0.181, H -0.738, I -0.359, K -0.298, L -0.52, M -0.488, N -0.065, P -0.449, Q -0.489, R -0.507, S -0.089, T -0.2, V -0.603, W -0.598, Y -0.652
W45: A 0.282, C 0.18, D 0.479, F 0.153, G 0.236, H 0.361, I 0.12, K 0.518, L 0.122, M 0.255, P 0.346, Q 0.224, R 0.111, S 0.292, T 0.345, Y 0.256
A46: D 0.09, E -0.076, F -0.184, G 0.056, H -0.276, I -0.863, K -0.368, L -0.039, M -0.008, N -0.124, P 0.2, Q -0.085, R -0.249, S 0.056, T 0.194, V -0.203, W -0.156
A47: C -0.591, D 0.438, E -0.375, G -0.078, H -0.036, L -0.493, M -0.025, N -0.007, P 0.019, R 0.04, S -0.565, V 0.142, W -0.144

Variants of: B2
Assay: as above
Conditions: Homo sapiens

Abundance fitness, by site and new letter:
N44: Q -0.016, H -0.063
A40: S -0.298
K3: V -0.107, H -0.224
G45: K -0.125, P -1.05
M14: T -0.028
L8: P -0.657, T -0.019
L21: A -0.671
P51: R -0.069
S52: P -0.005
A58: E 0.08
L35: I 0.005
N17: M -0.017
